Source: patent US20060263381A1 (INSTITUT GUSTAVE ROUSSY, published 2006)
Read-outs that look alike come from different tables or passages of the source.

B1: p174 (CLGLSYDGLL) (peptide)
peptide: CLGLSYDGLL
notes: Native peptide of MAGE-A1, -A2, -A3, -A4, -A6, -A12; It is named by the position of its first residue in MAGE-A1
B2: p174Y1V10 (YLGLSYDGLV) (peptide)
peptide: YLGLSYDGLV
notes: Variant of p174 with tyrosine at P1 and valine at P10
B3: p911Y1V9 (YVWELMTFGV) (peptide)
peptide: YVWELMTFGV
notes: It is a 10-mer, although the label says V9
B4: p248G9 (YLEYRQVPG) (peptide)
peptide: YLEYRQVPG
notes: Native peptide of MAGE-A2, -A3, -A4, -A6, -A10, -A12
B5: p248V9 (YLEYRQVPV) (peptide)
peptide: YLEYRQVPV
notes: Variant of p248G9 and p248D9 with valine at P9

Columns and labels:
HLA-A*0201 molecule [1] = target: T1, HLA-A*0201 molecule (human); assay: T2 cell HLA-A*0201 stabilisation, flow cytometry with BB7.2
T1 construct: MHC class I molecule on T2 cells, to which the test peptides are added from outside
Experimental: (§1) The cells are then analyzed by flow cytometry. […] The mean RA for each peptide is determined from at least three independent experiments. In all the experiments, 20& of the maximum fluorescence was obtained for 1 to 3 μM of the reference peptide.

HLA-A*0201 molecule [2] = target: T1, HLA-A*0201 molecule; assay: T2 cells loaded with 100 µM peptide, Brefeldin A, flow cytometry with BB7.2 at 0-8 h
HLA-A*0201 molecule [3] = target: T1, HLA-A*0201 molecule; assay: T2 cell HLA-A*0201 stabilisation, flow cytometry with BB7.2; remark: listed apart in the source
Experimental: as §1

Binder | RA (relative affinity) (HLA-A*0201 molecule [1]) | DC50 (time for loss of 50% of the complexes) (HLA-A*0201 molecule [2]) | RA (relative affinity) (HLA-A*0201 molecule [3])
YLGLSYDGLL (Variant of p174 with tyrosine at P1) [p174Y1 (YLGLSYDGLL)] | 13 ratio to reference peptide HIVpol 589 | < 2 h | –
B1 | 41 ratio to reference peptide HIVpol 589 | < 2 h | –
B2 | 2.5 ratio to reference peptide HIVpol 589 | < 2 h | –
B3 | – | – | 2.03 ratio to reference peptide HIVpol 589
YLFLWGPRA (Variant of p262 with leucine at P2) [p262L2 (YLFLWGPRA)] | 0.2 ratio to reference peptide HIVpol 589 | 6 h | –
B4 | > 27 ratio to reference peptide HIVpol 589 | < 2 h | –
B5 | 1.8 ratio to reference peptide HIVpol 589 | 4 h | –
YLEYRQVPD (Native peptide of MAGE-A1) [p248D9 (YLEYRQVPD)] | 22.5 ratio to reference peptide HIVpol 589 | < 2 h | –
